The values that follow come from article PMC12636523.

The target of the test is cleaved SVS-Dlp (SVS-Dlp coexpressed with Mmp2-FLAG, cleaved in the N-terminal polypeptide) (Drosophila). The test can be described thus: co-IP; S2R+ cells cotransfected with SVS-dlp and a Wnt, with or without Mmp2-FLAG; clarified lysate (2 mM Tris HCl, 150 mM NaCl, 1% NP-40 substitute, 1 mM EDTA, 5% glycerol, pH 7.4) on GFP-Trap Magnetic Agarose beads, 30 min at 4°C; Western blot under reducing conditions. (A western blot detects proteins with antibodies after separation by electrophoresis.)

The molecule Wnt6-3XHA (ligand) yielded a fold increase of Wnt pulled down against uncleaved Dlp (median) of 2.7 fold.

B1: Wnt4-3XFLAG (ligand)
chain: QVRNEDQLLMVGQNGDLDSSNPAIHHQQHQQHQQHQQHQQHQSNHNLNNGNMNSTILNTLMGNNAGQVVNSSPGGGGSMINQLGSSTSSVPSVIGGGVGSVGNPWHSAVGLGVPGNGMGLPSSHGLGGNMGSHPHGHALAGLAKLGIIVPGGQGLPGNLGYGGTMLNGGGVGGAAGMGLGIGSNTNNMDMQQGLYNEHFISEHTVMAVFTSQGQVGGPCRYMPATRRQNHQCRKETGLPGTLSEARRLATTHCEEQFRYDRWNCSIETRGKRNIFKKLYKETAFVHALTAAAMTHSIARACAEGRMTKCSCGPKKHNREAQDFQWGGCNDNLKHGKRVTRSFLDLRGGDGDEVSEILRHDSEVGIEAVSSQMMDKCKCHGVSGSCSMKTCWKKMADFNATATLLRQKYNEAIRKAPNQRSMRQVSSSRMKKPKQRRKKPQQSQYTTLYYLETSPSYCAVTKDRQCLHPDNCGTLCCGRGYTTQVVKQVEKCRCRFNNGRCCQLICDYCQRLENKYFCK
Molecule B1 gave a fold increase of Wnt pulled down against uncleaved Dlp (median) of 5.9 fold.

B2: Wg-HA (Wingless with 3XHA tag) (ligand)
chain: GSSLSQVEGKQKSGRGRGSMWWGIAKVGEPNNITPIMYMDPAIHSTLRRKQRRLVRDNPGVLGALVKGANLAISECQHQFRNRRWNCSTRNFSRGKNLFGKIVDRGCRETSFIYAITSAAVTHSIARACSEGTIESCTCDYSHQSRSPQANHQAGSVAGVRDWEWGGCSDNIGFGFKFSREFVDTGERGRNLREKMNLHNNEAGRAHVQAEMRQECKCHGMSGSCTVKTCWMRLANFRVIGDNLKARFDGATRVQVTNSLRATNALAPVSPNAAGSNSVGSNGLIIPQSGLVYGEEEERMLNDHMPDILLENSHPISKIHHPNMPSPNSLPQAGQRGGRNGRRQGRKHNRYHFQLNPHNPEHKPPGSKDLVYLEPSPSFCEKNLRQGILGTHGRQCNETSLGVDGCGLMCCGRGYRRDEVVVVERCACTFHWCCEVKCKLCRTKKVIYTCL
As for B2, the fold increase of Wg pulled down, normalized to the amount of Dlp, against uncleaved Dlp (median) was 2.7 fold.

B3: Wnt2-3XHA (ligand)
chain: FTSVMLCGRIPGLTPGQRNMCREMPDALIALGEGHQLGAQECQHQFRGHRWNCSEVWQRNVFAHVIPTASREAAYTYAIASAGAAYAVTAACARGNISTCGCDVRHKATPTGGGTPDEPWKWGGCSADVDFGMRYARRFMDARELERDSRTLMNLHNNRAGRTLVKKMLRTDCKCHGVSGSCVMKTCWKSLPPFRLVGDRLMLKYQKAKTVQAVKGKRGLRLVLSRKKHAGTARAQKPVLDWPKRMELIYLEASPNYCERSLQTGSQGTSGRTCQRTGHGPQSCDLLCCGRGHNTQHIRRTTQCRCQFRWCCEVKCDECDESYEEFTCK
With B3, the fold increase of Wnt pulled down against uncleaved Dlp (median) is 6.2 fold.
